T1: Kunitz trypsin inhibitor (KTI) (UniProt P01070 25-205)
T1 sequence: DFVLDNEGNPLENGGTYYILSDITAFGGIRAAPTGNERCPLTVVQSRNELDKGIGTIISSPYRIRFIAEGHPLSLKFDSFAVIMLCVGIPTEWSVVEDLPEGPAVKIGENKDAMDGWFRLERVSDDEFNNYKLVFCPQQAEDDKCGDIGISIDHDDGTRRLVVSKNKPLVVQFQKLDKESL

T2: Kunitz trypsin inhibitor (KTI) (UniProt P01070)
T2 sequence: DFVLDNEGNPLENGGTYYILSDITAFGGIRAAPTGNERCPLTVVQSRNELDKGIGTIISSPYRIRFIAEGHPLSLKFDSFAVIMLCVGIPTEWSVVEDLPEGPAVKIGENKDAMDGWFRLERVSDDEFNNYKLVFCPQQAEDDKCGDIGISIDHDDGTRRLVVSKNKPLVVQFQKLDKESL

For six molecules, Kd results are on record in article PMC8907715, “Selection and identification of high‐affinity aptamer of Kunitz trypsin inhibitor and their application in rapid and specific detection”.

One series has as its target T1, Kunitz trypsin inhibitor (KTI). As to the kind of experiment: GO fluorescence assay; text gives 52.6 ± 11.4; FAM-aptamer 0-600 nM with GO 60 min, then 1 uM KTI 2 h at room temperature in the dark; assay buffer, salt and pH not stated (oligos dissolved in TE pH 8.0). To be noted: protein: commercial; label: 5'-FAM.
Regarding CTTCGTATCCTGTGCTGCAGTTGTTTTTAAGTGCTGGGAG (ssDNA) [Akti-5], the Kd (usually the constant that tells how readily two partners part at equilibrium) amounted to 52.5 ± 11.3 nM.

The target of a further series is T2, Kunitz trypsin inhibitor (KTI). The series is described as follows: GO fluorescence assay. To be noted: FAM-aptamer 0-600 nM with GO 60 min, then 1 uM KTI 2 h at room temperature in the dark; assay buffer, salt and pH not stated (oligos dissolved in TE pH 8.0).
On to “CCAACCTGTGGCATTTGGTAACTTGATCTTACGGTGTTCG [Akti-10]”, for which the Kd amounted to 22.6 nM. The same measure, in the same setting: under “CTGGTGTTTTCTTTACGCATAACAAGGCCCCTGAGAGGCT [Akti-9]” stands 134 nM.

For “GGTCGTGAGGCCCACCGCTGAGCTCTAGTATCGCTCGGCG [Akti-11]”, the Kd was determined as 116 nM. Consider “TCTGGCTTCTGATCTGATGTTTTTACTATCGGTATTTCTA [Akti-15]”, for which the Kd amounted to 67.9 nM. Same read-out and setting: next, “TGTACCGCCCACCTGCCGCTAACGGCGGTGCTGCGGTGCG [Akti-28]”: 164 nM.
